# Results reported in publication PMC3467072.
# T1: Rv3066 (TetR-family regulator) (Mycobacterium tuberculosis H37Rv, UniProt I6X658 1-202)
# T1 sequence: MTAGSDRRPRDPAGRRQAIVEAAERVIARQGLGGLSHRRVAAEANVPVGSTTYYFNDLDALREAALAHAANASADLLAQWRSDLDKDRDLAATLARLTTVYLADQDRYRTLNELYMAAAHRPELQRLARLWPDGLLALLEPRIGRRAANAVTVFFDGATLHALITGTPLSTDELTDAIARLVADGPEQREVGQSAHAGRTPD
# Biological target: T1, Rv3066 (TetR-family regulator)
# Assay: fluorescence polarization
binder,measurement,value
"30-bp IR1 dsDNA, fluorescein (dsDNA) DNA 1: CGAGCCTCCTTTGTGTACATTTGTACATGT DNA 2: ACATGTACAAATGTACACAAAGGAGGCTCG",Kd,4.4 ± 0.3 nM
